Laboratory results as given in article PMC11077047, “Activation of zinc uptake regulator by zinc binding to three regulatory sites”.

Key:
[1] = target: T1, Zur (ScZur) wild type (Streptomyces coelicolor) (UniProt Q9L2H5); assay: DNase I footprinting; conditions: ITC: 20 mM HEPES pH 7.8, 150 mM NaCl, 0.5 mM TCEP, 25 C. EMSA: 20 mM Tris-HCl pH 7.8, 150 mM NaCl, 5 mM DTT, 0.1 mg/ml BSA, 5% glycerol, 0.1 ug poly(dI-dC) per …
T1 sequence: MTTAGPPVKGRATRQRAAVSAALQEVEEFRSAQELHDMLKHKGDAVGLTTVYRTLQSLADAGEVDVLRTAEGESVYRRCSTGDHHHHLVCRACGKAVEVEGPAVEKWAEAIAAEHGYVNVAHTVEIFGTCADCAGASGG

[2] = target: T2, Zur H36A H36A (Streptomyces coelicolor) (UniProt Q9L2H5); assay: DNase I footprinting; conditions: ITC: 20 mM HEPES pH 7.8, 150 mM NaCl, 0.5 mM TCEP, 25 C. EMSA: 20 mM Tris-HCl pH 7.8, 150 mM NaCl, 5 mM DTT, 0.1 mg/ml BSA, 5% glycerol, 0.1 ug poly(dI-dC) per …
T2 sequence: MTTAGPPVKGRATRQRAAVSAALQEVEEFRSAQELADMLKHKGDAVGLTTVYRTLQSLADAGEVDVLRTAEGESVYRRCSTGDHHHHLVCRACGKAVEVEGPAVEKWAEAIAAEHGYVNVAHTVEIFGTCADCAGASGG

[3] = target: T3, Zur (ScZur) wild type (Streptomyces coelicolor, UniProt Q9L2H5 1-139); assay: EMSA; 400 nM Zur, 0-5 uM zinc; saturating state switched (hexamer); ITC: 20 mM HEPES pH 7.8, 150 mM NaCl, 0.5 mM TCEP, 25 C. EMSA: 20 mM Tris-HCl pH 7.8, 150 mM NaCl, 5 mM DTT, 0.1 mg/ml BSA, 5% glycerol, 0.1 ug poly(dI-dC) per; conditions: protein: recombinant; chain copies: 2; label: 6-FAM; blunt
T3 sequence: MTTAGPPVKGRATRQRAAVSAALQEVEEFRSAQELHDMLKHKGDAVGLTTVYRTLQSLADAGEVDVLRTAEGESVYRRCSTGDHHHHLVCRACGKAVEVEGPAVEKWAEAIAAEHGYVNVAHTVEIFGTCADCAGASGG

[4] = target: T4, Zur H36A (Streptomyces coelicolor, UniProt Q9L2H5 1-139, H36A); assay: ITC; 4.0 eq Zn2+ per Zur dimer; N=2.0 dimers per DNA; K=3.3e5 M-1; ITC: 20 mM HEPES pH 7.8, 150 mM NaCl, 0.5 mM TCEP, 25 C. EMSA: 20 mM Tris-HCl pH 7.8, 150 mM NaCl, 5 mM DTT, 0.1 mg/ml BSA, 5% glycerol, 0.1 ug poly(dI-dC) per; conditions: protein: recombinant; chain copies: 2; label: 6-FAM in EMSA; blunt
T4 sequence: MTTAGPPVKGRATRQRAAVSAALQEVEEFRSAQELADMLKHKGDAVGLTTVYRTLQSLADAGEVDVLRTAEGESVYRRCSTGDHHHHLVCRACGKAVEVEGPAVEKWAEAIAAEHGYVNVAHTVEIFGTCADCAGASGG

[5] = target: T3, Zur (ScZur) wild type; assay: ITC; 4.0 eq Zn2+ per Zur dimer; N=2.1 dimers per DNA; K=8.7e5 M-1; ITC: 20 mM HEPES pH 7.8, 150 mM NaCl, 0.5 mM TCEP, 25 C. EMSA: 20 mM Tris-HCl pH 7.8, 150 mM NaCl, 5 mM DTT, 0.1 mg/ml BSA, 5% glycerol, 0.1 ug poly(dI-dC) per; conditions: protein: recombinant; chain copies: 2; label: 6-FAM in EMSA; blunt
[6] = target: T3, Zur (ScZur) wild type; assay: ITC; 4.0 eq Zn2+ per Zur dimer; N=3.1 dimers per DNA; K=1.8e6 M-1; ITC: 20 mM HEPES pH 7.8, 150 mM NaCl, 0.5 mM TCEP, 25 C. EMSA: 20 mM Tris-HCl pH 7.8, 150 mM NaCl, 5 mM DTT, 0.1 mg/ml BSA, 5% glycerol, 0.1 ug poly(dI-dC) per; conditions: protein: recombinant; chain copies: 2; label: 6-FAM in EMSA; blunt
[7] = target: T4, Zur H36A; assay: ITC; 4.0 eq Zn2+ per Zur dimer; N=3.1 dimers per DNA; K=2.6e5 M-1; ITC: 20 mM HEPES pH 7.8, 150 mM NaCl, 0.5 mM TCEP, 25 C. EMSA: 20 mM Tris-HCl pH 7.8, 150 mM NaCl, 5 mM DTT, 0.1 mg/ml BSA, 5% glycerol, 0.1 ug poly(dI-dC) per; conditions: protein: recombinant; chain copies: 2; label: 6-FAM in EMSA; blunt
[8] = target: T3, Zur (ScZur) wild type; assay: EMSA; 400 nM Zur, 0-5 uM zinc; saturating state switched (tetramer); ITC: 20 mM HEPES pH 7.8, 150 mM NaCl, 0.5 mM TCEP, 25 C. EMSA: 20 mM Tris-HCl pH 7.8, 150 mM NaCl, 5 mM DTT, 0.1 mg/ml BSA, 5% glycerol, 0.1 ug poly(dI-dC) per; conditions: protein: recombinant; chain copies: 2; label: 6-FAM; blunt

In the case of “CTCCTCGTGTGTACCGGCGTCCGGCGACCCGGCGCCCGGATGCCAGTCAACTACGGGTAGGGGGTATCGGGCAACGCGGCACTGAACACCGTTGTCATGTGCCTTGACCTGCGGAAACGTTTCGCAGGTCAGAGTGTTGCGAGGATGCGGAGGGTGCGGCTTCCGCCGTCAGGGGGACCGGTCCGACGGGGCTCGTCCTGACCCTGTGCGAACAACGGCGGACACTGTGCGATGTCCGCGATGCCCGGTCTGGGGGCGCGGTTTGTC (double strand) [zitB promoter 267 bp footprinting probe]”, the binding [1] is reported as “binds” and the binding [2] is reported as “binds more weakly”.

B1: znuA zurbox with zitB flanks (4 nt each) (dsDNA)
DNA 1: TCCGCCACATGACAACGGTTTCCAGTGCTGTTG
DNA 2: CAACAGCACTGGAAACCGTTGTCATGTGGCGGA
B1: binds [3].

B2: znuA 33 bp (zurbox site 1) (dsDNA)
DNA 1: TCCGCTTGTTGACAACGGTTTCCATATTTGTTG
DNA 2: CAACAAATATGGAAACCGTTGTCAACAAGCGGA
With B2 the Kd [4] was 3000 ± 900 nM and the Kd [5] was 1200 ± 200 nM.

B3: zitB 33 bp (dsDNA)
DNA 1: CAAGGCACATGACAACGGTGTTCAGTGCCGCGT
DNA 2: ACGCGGCACTGAACACCGTTGTCATGTGCCTTG
With B3 the Kd [6] was 600 ± 100 nM and the Kd [7] was 3900 ± 1000 nM.

B4: zitB zurbox with znuA flanks (4 nt each) (dsDNA)
DNA 1: CAAGGTTGTTGACAACGGTGTTCATATTCGCGT
DNA 2: ACGCGAATATGAACACCGTTGTCAACAACCTTG
B4: binds [8].
